Data on two substances can be found in publication PMC4036328.

Test [1] has as its target MjNhaP1 D161A mutant (NhaP1 Na+/H+ antiporter from Methanocaldococcus jannaschii) (Methanocaldococcus jannaschii) (UniProt Q60362). Description: Western blotting; dimers observed by Western blotting; data not shown; no conditions told. (In general: A western blot detects proteins with antibodies after separation by electrophoresis.)
The target in test [2] is MjNhaP1 N160A mutant (NhaP1 Na+/H+ antiporter from Methanocaldococcus jannaschii) (Methanocaldococcus jannaschii) (UniProt Q60362). The description is as above.

As a reminder, the stoichiometry N is the number of molecules, sites or subunits per partner or assembly. Regarding “MjNhaP1 D161A mutant (NhaP1 Na+/H+ antiporter from Methanocaldococcus jannaschii) (from UniProt Q60362 1-426) (natural protein)”, the stoichiometry N in test [1] stood at 2. The substance “MjNhaP1 N160A mutant (NhaP1 Na+/H+ antiporter from Methanocaldococcus jannaschii) (from UniProt Q60362 1-426) (natural protein)” returned a stoichiometry N in test [2] of 2.
